Source: PMC9001736 (2022)

Legend:
[1] = molecular target: T1, ZZ domain of p300 (p300ZZ) (human); experiment: value cited from earlier reference
T1 chain: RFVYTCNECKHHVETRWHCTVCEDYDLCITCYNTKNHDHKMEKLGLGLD

[2] = molecular target: T2, REEE peptide (mimetic of the Nt-R cargo degradation signal)
T2 peptide: REEE

[3] = molecular target: T3, ZZ domain of HERC2 (HERC2ZZ, aa 2702–2755 with additional tryptophan at the C-terminus) (human, UniProt O95714 2702-2755); experiment: value cited from earlier reference
T3 chain: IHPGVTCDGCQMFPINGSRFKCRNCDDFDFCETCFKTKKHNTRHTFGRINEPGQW

B1: histone H3_(1–12) peptide (aa 1–12 of H3) (peptide)
peptide: ARTKQTARKSTG
modifications: zinc-bound (2 Zn2+ expected for a ZZ finger); limits from the UniProt ZZ-type feature, construct limits not given
[1]
  Kd: 8.8 µM

B2: p62 ZZ (protein)
chain: not shown
[2]
  Kd: 1.9 µM

## ARTKQTARKSTG
[3]
  Kd: 15 µM
